Where a chain is given by its changes, count along the chain named.
T1: recombinant human CTLA4 protein with human IgG1 Fc tag at the C-terminus (Acro biosystems, Cat#CT4-H5255) (human, UniProt P16410 37-162)
T1 construct: bought protein; also called human CTLA4-Fc; CTLA4-Fc; not shown: human IgG1 Fc tag at the C-terminus
T1 sequence (looked up): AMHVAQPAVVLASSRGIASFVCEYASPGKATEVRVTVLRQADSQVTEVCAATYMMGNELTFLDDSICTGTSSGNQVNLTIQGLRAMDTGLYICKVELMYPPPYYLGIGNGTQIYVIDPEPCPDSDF

T2: recombinant human CTLA4-his protein (Acro biosystems, Cat#CT4-H5229) (human, UniProt P16410 37-162)
T2 construct: bought recombinant protein; not shown: his tag
T2 sequence (looked up): T1 sequence (looked up)

T3: cynomolgus monkey CTLA4-his protein (Acro biosystems, Cat#CT4-C5227) (cynomolgus monkey, UniProt G7PL88 36-161)
T3 construct: bought recombinant protein; also called Cynomolgus CTLA4-his; not shown: his tag
T3 sequence: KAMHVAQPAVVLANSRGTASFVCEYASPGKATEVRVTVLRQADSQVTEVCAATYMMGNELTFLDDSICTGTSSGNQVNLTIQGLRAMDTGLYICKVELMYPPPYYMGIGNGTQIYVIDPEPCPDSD

B1: mouse anti-CTLA4 monoclonal antibody D1H4 (antibody, V domains shown)
VH: EVQLQQSGPVLVKPGASVKMSCKASGYTFTDYYMNWVKQSHGKSLEWIGAINPDHGGSSYNQKFKGKATLTVDKSSSTAYMELNSLTSEDSAVYYCARDGSIHYVMDDWGQGTSVTVSS
VL: DIVMSQSPSSLTVSAGDKVTMSCKSSQSLLHSGNQKNYLAWYQQKPWQPPKLLIYGASTRESGVPDRFTGSGSGTDFTLTISSVQAEDLAVYYCQNDYGYPYTFGGGTKLEIK
notes: mouse mAb purified from hybridoma supernatant
B2: mouse anti-CTLA4 monoclonal antibody D1A7 (antibody, V domains shown)
VH: QVTLKESGPGMLQPSQTLSLTCSFSGFSLSSSKLGVGWIRQPAGKGLEWLAHIWWNDDNYYVPSLKSRLTISKDTSNNQVFLKITNVDAADTATYYCVQVPYYTTQPWFAYWGQGTLVTVSA
VL: DIQMTQSPASLSASVGETVTITCRASGNIHNYLAWYLQNQGRSPQLLVYNTETLADGVSSRFSGSGSGTQYFLKISSLQPEDFGTYYCQHLWSTPWTFGGGTKLEIK
notes: as for B1
B3: mouse anti-CTLA4 monoclonal antibody D2A4 (antibody, V domains shown)
VH: QVQLQQPGAELVKPGSSVNLSCKASGYTFTSYWVHWVKQGPGRGLEWIGRIDPNRGGTYYNENFKTKAALTVDSPSSTAYMHLSSLTSEDSAVYYCARGGLNYYALDYWGQGTSVTVSS
VL: DIQMTQSPASLFASLGETVTITCRASENIYSYLAWYQQKQGKSPQLLVYNANTLTEGVPSSFSGSGSGTQFSLKINTLQPEDFGTYYCQHHYGIPFTFGSGTKLEIK
notes: as for B1
B4: mouse anti-CTLA4 monoclonal antibody D1H3 (antibody, V domains shown)
VH: QVQLQQPGAELVNPGASVKLSCKASGYTFTSYWLHWVKQRPGRGLEWIGRIDPNRGTIYYNEKFNNKATVTVDKPSNTAYMQLSRLTLEDSAVYYCARGGSNFYAMDYWGQGTSVTVSS
VL: DIQMTQSPASLSASVGETVTITCRTSENIYSYLAWYQQKQGESPQLLVYNAKTLAEGVPSRFSGSGSGTQFSLKINSLQPEDFGSYYCQNHDGIPFTFGSGTKLEIK
notes: as for B1
B5: mouse anti-CTLA4 monoclonal antibody D1G6 (antibody, V domains shown)
VH: EVQLQQSGPELVKPGASVKLSCKASGNTFTTYVLNWVKQKPGQGLEWIGYFNPYNDAIKYNEKFKGKATLTSDKSSSTAYMELSSLTSEDSAVYYCARFEGGGYAMDYWGQGTSVTVSS
VL: DIVLTQSPASLAVSLGQRATISCRASQSVGTSSYSYIHWYQQKPGQPPKLLIKYASDLESGVPARFSGSGSGTDFTLNIHPVEEEDTATYYCQHSWEIPYTFGGGTKLEIK
notes: as for B1
B6: mouse anti-CTLA4 monoclonal antibody D1B8 (antibody, V domains shown)
VH: QIQLQQSGPELVKPGASVKISCKASGYTFTDYYINWVKQRPGQGLEWIGWIYPGNNNTRYNEKFKGKATLTIDTSSSTAFMHLSSLTSEDSAVYFCARYYFDYWGQGTTLTVSS
VL: DIQMTQSPSSLSASLGERISLTCRASQEITGYLSWLQQKPDGTIKRLIYAASTLDSGVPQRFSGSRSGSDYSLTISSLESEDFADYYCLQYASYPRTFGGGTKLEIK
notes: as for B1
B7: huD1D5-V10 (antibody, human IgG4 S228P, kappa, V domains shown)
VH: EVQLVESGGGLVKPGGSLRLSCAASGFTFSDYGMAWVRQAPGKGLEWVAFISNLAYSVYYADTETGRFTISRDNAKNSLYLQMNSLRAEDTAVYYCARSGLPYAMDYWGQGTTVTVSS
VL: DIQMTQSPSSLSASVGDRVTITCRASQDISNYLNWYQQKPGKVPKLLIYYISRLHSGVPSRFSGSGSGTDFTLTISSLQPEDVATYYCQQGRMLPWTFGGGTKVEIKR
notes: humanized IgG4/kappa; tested as 293F cell supernatant on Octet; also called hu CTLA4 D1D5-V10
B8: huD1D5-V11 (antibody, human IgG4 S228P, kappa, V domains shown)
VH: B7 VH with N74D
VL: B7 VL
notes: humanized IgG4/kappa; tested as 293F cell supernatant on Octet; also called hu CTLA4 D1D5-V11
B9: huD1D5-V12 (antibody, human IgG4 S228P, kappa, V domains shown)
VH: B7 VH with A49S
VL: B7 VL
notes: humanized IgG4/kappa; tested as 293F cell supernatant on Octet; also called hu CTLA4 D1D5-V12
B10: chimeric D1B8 anti-CTLA4 antibody (antibody, human IgG4 S228P, kappa, V domains shown)
VH: B6 VH
VL: DIQMTQSPSSLSASLGERISLTCRASQEITGYLSWLQQKPDGTIKRLIYAASTLDSGVPQRFSGSRSGSDYSLTISSLESEDFADYYCLQYASYPRTFGGGTKLEIKR
notes: mouse variable domains on human IgG4/kappa

What follows are binders tested against T1, recombinant human CTLA4 protein with … (assay: cell based blocking FACS: antibody pre-mixed with human CTLA4-Fc (1 ug/mL), added to Daudi cells; blocked ligands: cell surface CD80/CD86).
Procedure: Daudi cells were harvested from cell culture flasks at the log phase, washed twice and re-suspended in PBS containing 2% v/v Fetal Bovine Serum (FACS buffer). […] Cells were washed twice and re-suspended in FACS buffer. Fluorescence was measured using a Becton Dickinson FACS Canto II-HTS equipment. Data was analyzed using Graphpad Prism software and IC₅₀ values were reported.

IC50 | Binder
~8.85 nM | B1
6.81 nM | B2
7.12 nM | B3
9.27 nM | B4

Each binder was assayed against T1, recombinant human CTLA4 protein with … (assay: cell-based or functional assay).

EC50 of IL-2 release (GS-J1 T cells + GS-C1/CD80 cells + human CTLA4-Fc, IL-2 HTRF) | Binder
41.5 nM | B5
~40.8 nM | B1
45.9 nM | B2
43.6 nM | B6
38.3 nM | B3
37.8 nM | B4

These binders were tested against T1, recombinant human CTLA4 protein with … (assay: competitive ELISA: antibody pre-mixed with biotin human CTLA4-Fc (65 ng/ml), added to plate coated with the benchmark; competitor: coated Yervoy).
Procedure: Plates were washed once with wash buffer, blocked with 200 µl PBST with 5% w/v non-fatty milk, incubated for 2 hours at 37° C., and washed 4 times.
After incubation at 37° C. for 40 minutes, plates were washed 4 times again using wash buffer. Then the plates were added and incubated with 100 µl/well streptavidin conjugated HRP (1:10000 dilution in PBST, Jackson Immuno Research, Cat#016-030-084, 100 µl/well) for 40 minutes at 37° C. Plates were finally washed using wash buffer. Finally, TMB was added and the reaction was stopped using 1M H₂SO₄, and the absorbance of the each well was read on a microplate reader using dual wavelength mode with 450 nm for TMB and 630 nm as the reference wavelength, then the OD (450-630) values were plotted against antibody concentration. Data was analyzed using Graphpad Prism software and IC₅₀ values were reported.

IC50 | IC50 (read off the curve) | Binder
0.445 nM |  | B5
 | ~2 nM | B1
0.445 nM |  | B2
3.85 nM |  | B3
1.86 nM |  | B4

Each binder was assayed against T2, recombinant human CTLA4-his protein … (assay: BLI, Octet; antibody from cell supernatant on AHC sensor, CTLA4-his as analyte).
Procedure: Briefly, AHC biosensors (anti-human IgG Fc capture, from ForteBio) were presoaked with 10 mM glycine (pH 1.5) for 3 seconds, and then dipped in a well with running buffer (0.5% w/v BSA in PBST) for 3 seconds, the soaking and dipping steps were repeated for three times. […] A new baseline was run for 180 seconds in another well with running buffer. […] Finally, sensors were presoaked with 10 mM glycine (pH 1.5) for 3 seconds, and then were dipped in a well with running buffer for 3 seconds, the soaking and dipping steps repeated for three times. The association and dissociation curves were fit to a 1:1 Langmuir binding model using ForteBio Data Analysis 8.1.

Kd | koff | kon | Binder
33 nM | 0.00163 s⁻¹ | 49300 M⁻¹ s⁻¹ | B7
6.94 nM | 0.000538 s⁻¹ | 77500 M⁻¹ s⁻¹ | B8
37.4 nM | 0.00133 s⁻¹ | 35500 M⁻¹ s⁻¹ | B9

What follows are binders tested against T1, recombinant human CTLA4 protein with … (assay: capture ELISA: antibody captured on coated plate (anti-human IgG Fc for the chimeric antibodies), biotin human CTLA4-Fc, streptavidin-HRP, OD(450-630)).
Procedure: (§1) Plates were washed once with wash buffer (PBS+0.05% v/v Tween-20, PBST) and then blocked with 200 µl/well blocking buffer (PBST with 5% w/v non-fatty milk) for 2 hours at 37° C. […] After a final wash, plates were incubated with 100 µl/well substrate TMB (Innoreagents, Cat#TMB-S-002). The reaction was stopped in 15 minutes at room temperature with 50 µl/well 1M H₂SO₄, and the absorbance of the each well was read on a microplate reader using dual wavelength mode with 450 nm for TMB and 630 nm as the reference wavelength, then the OD (450-630) values were plotted against antibody concentration. Data was analyzed using Graphpad Prism software and EC₅₀ values were reported.
For the capture ELISA, AffiniPure Goat Anti-Human IgG, Fcy fragment specific (Jackson Immuno Research, Cat#109-005-008) was used instead of AffiniPure Goat Anti-Mouse IgG, F(ab′)₂ fragment specific, 100 µl/well.

EC50 | Binder
5.78 nM | B6
2.84 nM | B10

These binders were tested against T1, recombinant human CTLA4 protein with … (assay: capture ELISA: antibody captured on anti-mouse IgG F(ab')2 coated plate, biotin human CTLA4-Fc 26 ng/ml, streptavidin-HRP, OD(450-630)).
Procedure: as §1

EC50 | Binder
0.0979 nM | B5
0.108 nM | B1
0.134 nM | B2
1.11 nM | B6
0.245 nM | B3
0.206 nM | B4

These binders were tested against T2, recombinant human CTLA4-his protein … (assay: SPR, Biacore T200; antibody captured, CTLA4-his as analyte).
Procedure: (§2) Un-reacted moieties on the biosensor surface were blocked with ethanolamine. […] The antigen-antibody association kinetics was followed for 2 minutes and the dissociation kinetics was followed for 10 minutes. The association and dissociation curves were fit to a 1:1 Langmuir binding model using BIAcore evaluation software.

Kd | koff | kon | Binder
9.06 nM | 0.000695 s⁻¹ | 76700 M⁻¹ s⁻¹ | B5
0.925 nM | 0.000321 s⁻¹ | 346000 M⁻¹ s⁻¹ | B1
2.41 nM | 0.000602 s⁻¹ | 249000 M⁻¹ s⁻¹ | B2
2.24 nM | 0.000495 s⁻¹ | 221000 M⁻¹ s⁻¹ | B6
2.24 nM | 0.00153 s⁻¹ | 671000 M⁻¹ s⁻¹ | B3
4.15 nM | 0.000931 s⁻¹ | 224000 M⁻¹ s⁻¹ | B4

What follows are binders tested against T3, cynomolgus monkey CTLA4-his protein … in the same assay as above.
Procedure: as §2

Kd | koff | kon | Binder
1.96 nM | 0.000662 s⁻¹ | 338000 M⁻¹ s⁻¹ | B5
0.727 nM | 0.000422 s⁻¹ | 580000 M⁻¹ s⁻¹ | B1
1.66 nM | 0.00137 s⁻¹ | 829000 M⁻¹ s⁻¹ | B2
1.18 nM | 0.000532 s⁻¹ | 451000 M⁻¹ s⁻¹ | B6
2.24 nM | 0.00076 s⁻¹ | 340000 M⁻¹ s⁻¹ | B3
2.07 nM | 0.000601 s⁻¹ | 290000 M⁻¹ s⁻¹ | B4

— US20230212304A1 (BIOSION, published 2023)
